This is an account of results in article PMC6123711, “Conformational signatures in β-arrestin2 reveal natural biased agonism at a G-protein-coupled receptor” (Communications Biology, 2018).

For assay [1], the system named is β-arrestin2–Galr2 interaction (Galr2). In words: β-Arrestin2 recruitment using NanoBit technology. In kind it is cell-based, human. Conditions: for Log(τ/KA), β-Arrestin2: HEK293 cells, luminescence at 5 min after agonist, operational model (Eq. 2). The text has this: (§1) The β-arrestin recruitment assays were developed based on a structural complementation assay using NanoBit technology. Briefly, NanoBit technology is a system that basically consists of Nano luciferase (Nluc), which is a small protein that catalyzes a bright luminescent reaction. To create a complementation system, Nluc was separated into two subunits that individually produce very little enzymatic activity. […] Because of this low affinity for each other, these two fragments can bind when they are in close proximity. The interaction between the LgBit and the SmBit can be driven by the interactions of the fusion partners, allowing them to study protein–protein interaction in live cells. As the interaction is reversible, the association and dissociation can be monitored. There is no lag time in the loss of luminescence, and so the immediate detection allows for accurate assessment of temporal dynamics. […] To accurately monitor β-arrestin recruitment, four plasmid combinations between LgBit and SmBit with the fusion partners Galr2 and β-arrestins were screened. The plasmid combination with the highest luminescence signal was chosen for further studies (Fig. 2a, Supplementary Fig. 1). Using data points at 5 min after ligand stimulation, we obtained dose–response curves that corresponded to β-arrestin1/2 recruitment (Fig. 2d, e, Supplementary Fig. 2).
(§2) Fig. 2 The effect of different endogenous ligands in β-arrestin1/2 recruitment. a Schematic representation of the structural complementation assay used to monitor β-arrestin1/2–Galr2 interactions. Kinetic traces of β-arrestin1 (b) and β-arrestin2 (c) recruitment after Galr2 activation with 1 μM of three different agonists. Dose–response curves for recruitment of β-arrestin1 (d), and β-arrestin2 (e). Luminescence signal intensity obtained at 5 min after agonist stimulation was measured. […] The results are expressed as mean ± s.e.m. of three experiments performed in triplicate; each triplicate was averaged before calculating the s.e.m. The arrows indicate the time at which the cells were treated with the different ligands
(§3) Quantification of bias between each pathway was performed using Galanin as a reference ligand. All incubations for the different signaling assays were performed in serum-free medium to prevent peptide degradation.
HEK293 cells were obtained from the American Type Culture Collection (ATCC, CRL-1573; Manassas, VA, USA). […] After a 10-min incubation, 25 μl substrate (furimazine) was added and once every minute subsequent luminescence measurements were taken for 10 min for signal stabilization. A total of 10 μl ligand was then added to each well and luminescence measurements were recorded immediately and once every minute for 1 h (Synergy 2 Multi-Mode Microplate Reader BioTek, Winooski, VT, USA).
Background: Arrestin recruitment assays detect the binding of arrestin to an activated receptor.

Assay [2] has as its system β-arrestin1–Galr2 interaction (Galr2). Briefly: β-Arrestin1 recruitment using NanoBit technology. It is filed as cell-based, human. As to conditions: for Log(τ/KA), β-Arrestin1: HEK293 cells, luminescence at 5 min after agonist, operational model (Eq. 2); for Log(τ/KA), β-Arrestin1 / ΔLog(τ/KA), β-Arrestin1: mean ± s.e.m. of three experiments in triplicate; for ΔLog(τ/KA), β-Arrestin1: normalized to Galanin (reference agonist), in parenthesis.
Text: as §1, §2, §3
HEK293 cells were obtained from the American Type Culture Collection (ATCC, CRL-1573; Manassas, VA, USA). They were maintained in Dulbecco’s modified Eagle’s medium (DMEM) supplemented with 10% fetal bovine serum (FBS), 100 U/ml penicillin G, and 100 μg/ml streptomycin (Invitrogen; Carlsbad, CA, USA). During the experiments, the cells were tested for mycoplasma using a Universal Mycoplasma Detection Kit (ATCC). At 1 day before transfection, the cells were seeded in 96-well plates at a density of 2.5 × 10^4 cells per well. A mixture containing 50 ng β-arrestin construct containing the LgBit or SmBit and 50 ng Galr2 containing one of the two domains of Nluc and 0.2 μl Lipofectamine 2000 (Invitrogen) was prepared and added to each well. We tested four β-arrestin-Galr2 spatial orientations. […] After a 10-min incubation, 25 μl substrate (furimazine) was added and once every minute subsequent luminescence measurements were taken for 10 min for signal stabilization. A total of 10 μl ligand was then added to each well and luminescence measurements were recorded immediately and once every minute for 1 h (Synergy 2 Multi-Mode Microplate Reader BioTek, Winooski, VT, USA).

In assay [3] the test system is human Galr2. Briefly: Recruitment of β-arrestin2-FlasH1-3 to Galr2 (NanoBit). It is filed as cell-based. As to conditions: NanoBit luminescence. The text has this:
To investigate the effects of GPCR activation on the dynamics of β-arrestin2 conformation, we developed a series of FlasH BRET conformational biosensors[31],[32] by inserting the six-amino-acid motif, CCPGCC, immediately after the amino acid residue 140 (FlasH1), 263 (FlasH2), and 410 (FlasH3), respectively, into the human β-arrestin2 (Fig. 7a, b). Due to its characteristics (e.g., small size, stable, and bright and sustained luminescence)[33], we covalently linked the Nluc to the N terminus of β-arrestin2 during probe design. Each probe (Nluc–β-arrestin2–FlasH1, 2, and 3) was designed to measure BRET between Nluc and a fluorescein arsenical acceptor located at one of three positions along β-arrestin2. […] All three ligands were able to recruit these β-arrestin2–FlasH constructs to induce luminescence signals, although some signals were lower than that of wild-type β-arrestin2 (Fig. 7c). […]
The arrows indicate the time for treatment with the corresponding agonist. d Nluc–β-arrestin2–FlasH1-3 “conformational hallmarks” of β-arrestin2 by binding to Galr2. The bar graphs depict mean ± s.e.m. values of independent biological replicates (n = 3). *P < 0.05, **P < 0.005, statistically significant differences versus Galanin-stimulated control as determined by a one-way analysis of variance (ANOVA). […]

Assay [4] concerns mice. Conditions: cited from earlier work. The text has this: (§4) G-protein-coupled receptors (GPCRs) are the largest family of cell surface receptors that communicate extracellular stimuli to the cell interior[1]. Biased ligands are of particular interest because they offer the possibility to design a novel class of therapeutic agents. In some GPCRs, biased ligands that preferentially activate G-protein-dependent signaling have therapeutic potential. […] Most descriptions of biased ag ...

Assay [5] relates to luteinizing hormone (LH) secretion. Conditions: cited from earlier work.
Text: as §4

Assay [6] relates to galanin receptor 1 (Galr1). Conditions: cited from earlier work.
Text: as §4

Assay [7] deals with goldfish. Conditions: cited from earlier work.
Text: as §4

For assay [8], the system named is diet-induced obese rodents. Conditions: cited from earlier work.
Text: as §4

The mark [9] stands for this setting: mean ± s.e.m. of three experiments in triplicate.
The mark [10] stands for this setting: dose–response, data at 5 min after ligand stimulation, compared with Galanin.

With Galanin [reference compound], in assay [1] (setting [9]), the “Log(τ/KA), β-Arrestin2” value is given as 7.20 ± 0.02. Moreover, the “ΔLog(τ/KA), β-Arrestin2” value in assay [1] (normalized to Galanin (reference agonist), in parenthesis, mean ± s.e.m. of three experiments in triplicate) was 0.00 ± 0.02. For the same molecule, in assay [2], the “Log(τ/KA), β-Arrestin1” value is recorded as 7.18 ± 0.01 and the “ΔLog(τ/KA), β-Arrestin1” value was 0.00 ± 0.01. Further, the “recruitment of β-arrestin2–FlasH1-3 constructs” value in assay [3] was “maximal response”. In assay [4], the food intake entry is “food intake increase”.

B1: Spexin (peptide, UniProt Q9BT56 27-116, looked up)
Spexin: APQRLLERRNWTPQAMLYLKGAQGRRFISDQSRRKDLSDRPLPERRSPNPQLLTIPEAATILLASLQKSPEDEEKNFDQTRFLEDSLLNW
modifications: Spexin
notes: endogenous peptide ligand of Galr2 and Galr3; synthesized by AnyGen
For the molecule B1, the “Log(τ/KA), β-Arrestin2” value in assay [1] (setting [9]) stood at 6.40 ± 0.03. Besides, in assay [1] (setting [10]), the “agonism in β-arrestin2 recruitment” value is listed as “partial agonists”. Further, in assay [2], the “Log(τ/KA), β-Arrestin1” value is listed as 6.60 ± 0.08 and the “ΔLog(τ/KA), β-Arrestin1” value was −0.60 ± 0.01. The “agonism in β-arrestin1 recruitment” value in assay [2] (setting [10]) is on record as “partial agonists”. Besides, the “LH secretion, goldfish” value in assay [5] is on record as “attenuates LH secretion”. The “activation of Galr1” value in assay [6] is listed as “does not activate Galr1”. The appetite result in assay [7] is recorded as “suppresses appetite”. Moreover, the body weight result in assay [8] is “weight loss”.
